{"source": "patent US20170360893A1", "about": "(Merck Sharp & Dohme, published 2017)", "binders": {"B1": {"name": "Co-agonist Peptide 11 (peptide)", "peptide": "H[dS]QGTFTSDK([γGlu-γGlu-Palmitoyl])SLYLDERAAQDFVQWLLDT-NH2", "modifications": "N-terminus assumed", "SMILES": "CCCCCCCCCCCCCCCC(=O)N[C@@H](CCC(=O)N[C@@H](CCC(=O)NCCCC[C@H](NC(=O)[C@H](CC(=O)O)NC(=O)[C@H](CO)NC(=O)[C@@H](NC(=O)[C@H](Cc1ccccc1)NC(=O)[C@@H](NC(=O)CNC(=O)[C@H](CCC(N)=O)NC(=O)[C@@H](CO)NC(=O)[C@@H](N)Cc1c[nH]cn1)[C@@H](C)O)[C@@H](C)O)C(=O)N[C@@H](CO)C(=O)N[C@@H](CC(C)C)C(=O)N[C@@H](Cc1ccc(O)cc1)C(=O)N[C@@H](CC(C)C)C(=O)N[C@@H](CC(=O)O)C(=O)N[C@@H](CCC(=O)O)C(=O)N[C@@H](CCCNC(=N)N)C(=O)N[C@@H](C)C(=O)N[C@@H](C)C(=O)N[C@@H](CCC(N)=O)C(=O)N[C@@H](CC(=O)O)C(=O)N[C@@H](Cc1ccccc1)C(=O)N[C@H](C(=O)N[C@@H](CCC(N)=O)C(=O)N[C@@H](Cc1c[nH]c2ccccc12)C(=O)N[C@@H](CC(C)C)C(=O)N[C@@H](CC(C)C)C(=O)N[C@@H](CC(=O)O)C(=O)N[C@H](C(N)=O)[C@@H](C)O)C(C)C)C(=O)O)C(=O)O"}, "B2": {"name": "Co-agonist Peptide 8 (peptide)", "peptide": "H[dS]QGTFTSDK([γGlu-γGlu-Palmitoyl])SKYLEARAAQDFVQWLLDT-NH2", "modifications": "N-terminus assumed", "SMILES": "CCCCCCCCCCCCCCCC(=O)N[C@@H](CCC(=O)N[C@@H](CCC(=O)NCCCC[C@H](NC(=O)[C@H](CC(=O)O)NC(=O)[C@H](CO)NC(=O)[C@@H](NC(=O)[C@H](Cc1ccccc1)NC(=O)[C@@H](NC(=O)CNC(=O)[C@H](CCC(N)=O)NC(=O)[C@@H](CO)NC(=O)[C@@H](N)Cc1c[nH]cn1)[C@@H](C)O)[C@@H](C)O)C(=O)N[C@@H](CO)C(=O)N[C@@H](CCCCN)C(=O)N[C@@H](Cc1ccc(O)cc1)C(=O)N[C@@H](CC(C)C)C(=O)N[C@@H](CCC(=O)O)C(=O)N[C@@H](C)C(=O)N[C@@H](CCCNC(=N)N)C(=O)N[C@@H](C)C(=O)N[C@@H](C)C(=O)N[C@@H](CCC(N)=O)C(=O)N[C@@H](CC(=O)O)C(=O)N[C@@H](Cc1ccccc1)C(=O)N[C@H](C(=O)N[C@@H](CCC(N)=O)C(=O)N[C@@H](Cc1c[nH]c2ccccc12)C(=O)N[C@@H](CC(C)C)C(=O)N[C@@H](CC(C)C)C(=O)N[C@@H](CC(=O)O)C(=O)N[C@H](C(N)=O)[C@@H](C)O)C(C)C)C(=O)O)C(=O)O"}, "B3": {"name": "Co-agonist Peptide 10 (peptide)", "peptide": "HXQGTFTSDKSKYLDERAAQDFVQWLXDT", "modifications": "X2 = D-Ser; K10 conjugated to γEγEC16; X27 = methionine sulfone; C-terminal amide"}, "B4": {"name": "Co-agonist Peptide 9 (peptide)", "peptide": "HXQGTXTSDKSKYLDERAAQDFVQWLLDT", "modifications": "X2 = D-Ser; X6 = p-fluoro phenylalanine (pFF); K10 conjugated to γEγEC16; C-terminal amide"}, "B5": {"name": "Co-agonist Peptide 12 (peptide)", "peptide": "HXQGTFTSDXSKYLDARAAQDFVQWLLDT", "modifications": "X2 = D-Ser; X10 = para-aminomethyl phenylalanine (pAF) conjugated to γEγEC16; C-terminal amide"}, "B6": {"name": "Co-agonist Peptide 1 (peptide)", "peptide": "H[dS]QGTFTSDK([γGlu-Palmitoyl])SKYLDARAAQDFVQWLLDT-NH2", "modifications": "N-terminus assumed", "SMILES": "CCCCCCCCCCCCCCCC(=O)N[C@@H](CCC(=O)NCCCC[C@H](NC(=O)[C@H](CC(=O)O)NC(=O)[C@H](CO)NC(=O)[C@@H](NC(=O)[C@H](Cc1ccccc1)NC(=O)[C@@H](NC(=O)CNC(=O)[C@H](CCC(N)=O)NC(=O)[C@@H](CO)NC(=O)[C@@H](N)Cc1c[nH]cn1)[C@@H](C)O)[C@@H](C)O)C(=O)N[C@@H](CO)C(=O)N[C@@H](CCCCN)C(=O)N[C@@H](Cc1ccc(O)cc1)C(=O)N[C@@H](CC(C)C)C(=O)N[C@@H](CC(=O)O)C(=O)N[C@@H](C)C(=O)N[C@@H](CCCNC(=N)N)C(=O)N[C@@H](C)C(=O)N[C@@H](C)C(=O)N[C@@H](CCC(N)=O)C(=O)N[C@@H](CC(=O)O)C(=O)N[C@@H](Cc1ccccc1)C(=O)N[C@H](C(=O)N[C@@H](CCC(N)=O)C(=O)N[C@@H](Cc1c[nH]c2ccccc12)C(=O)N[C@@H](CC(C)C)C(=O)N[C@@H](CC(C)C)C(=O)N[C@@H](CC(=O)O)C(=O)N[C@H](C(N)=O)[C@@H](C)O)C(C)C)C(=O)O"}, "B7": {"name": "Co-agonist Peptide 5 (peptide)", "peptide": "H[dS]QGTFTSDK([γGlu-γGlu-Palmitoyl])SKYLDARAAQDFVQWLLDT-NH2", "modifications": "N-terminus assumed", "SMILES": "CCCCCCCCCCCCCCCC(=O)N[C@@H](CCC(=O)N[C@@H](CCC(=O)NCCCC[C@H](NC(=O)[C@H](CC(=O)O)NC(=O)[C@H](CO)NC(=O)[C@@H](NC(=O)[C@H](Cc1ccccc1)NC(=O)[C@@H](NC(=O)CNC(=O)[C@H](CCC(N)=O)NC(=O)[C@@H](CO)NC(=O)[C@@H](N)Cc1c[nH]cn1)[C@@H](C)O)[C@@H](C)O)C(=O)N[C@@H](CO)C(=O)N[C@@H](CCCCN)C(=O)N[C@@H](Cc1ccc(O)cc1)C(=O)N[C@@H](CC(C)C)C(=O)N[C@@H](CC(=O)O)C(=O)N[C@@H](C)C(=O)N[C@@H](CCCNC(=N)N)C(=O)N[C@@H](C)C(=O)N[C@@H](C)C(=O)N[C@@H](CCC(N)=O)C(=O)N[C@@H](CC(=O)O)C(=O)N[C@@H](Cc1ccccc1)C(=O)N[C@H](C(=O)N[C@@H](CCC(N)=O)C(=O)N[C@@H](Cc1c[nH]c2ccccc12)C(=O)N[C@@H](CC(C)C)C(=O)N[C@@H](CC(C)C)C(=O)N[C@@H](CC(=O)O)C(=O)N[C@H](C(N)=O)[C@@H](C)O)C(C)C)C(=O)O)C(=O)O"}}, "note": "*1 amine or outer side, *2 acyl side, *3 side chain or, on linkers, in order; H or OH if unused. Where no end group is shown, it is not given here. Side-chain parts run from the residue outwards. [ ]: non-standard residue; d: D form. The star is where a group is joined. γGlu = O=C(O)[C@H](CCC(=O)[*:2])N[*:1]; Palmitoyl = CCCCCCCCCCCCCCCC(=O)*"}
{"target": "human glucagon-like peptide 1 receptor (human, UniProt P43220 24-463)", "assay": "cell-based or functional assay", "units": {"GLPR1 EC50 (nM) human; cAMP production (HitHunter cAMP XS) in cells expressing human GLP-1R, 20% human serum": "nM"}}
{"binder": "B1", "GLPR1 EC50 (nM) human; cAMP production (HitHunter cAMP XS) in cells expressing human GLP-1R, 20% human serum": 0.06}
{"binder": "B2", "GLPR1 EC50 (nM) human; cAMP production (HitHunter cAMP XS) in cells expressing human GLP-1R, 20% human serum": 0.02}
{"binder": "B3", "GLPR1 EC50 (nM) human; cAMP production (HitHunter cAMP XS) in cells expressing human GLP-1R, 20% human serum": 0.02}
{"binder": "B4", "GLPR1 EC50 (nM) human; cAMP production (HitHunter cAMP XS) in cells expressing human GLP-1R, 20% human serum": 0.06}
{"binder": "HXQGTFTSDKSKYLDERAAQDFVQWLLDT (X2 = D-Ser; K10 conjugated to γEγEC16; C-terminal amide)", "note": "[Comparator Co-agonist Peptide 6]", "GLPR1 EC50 (nM) human; cAMP production (HitHunter cAMP XS) in cells expressing human GLP-1R, 20% human serum": 0.007}
{"binder": "Ac-HAQGTFTSDK([γGlu-γGlu-C16])SKYLDERAAQDFVQWLLDT-NH2", "note": "[Co-agonist Peptide 7]", "GLPR1 EC50 (nM) human; cAMP production (HitHunter cAMP XS) in cells expressing human GLP-1R, 20% human serum": 0.07}
{"binder": "B5", "GLPR1 EC50 (nM) human; cAMP production (HitHunter cAMP XS) in cells expressing human GLP-1R, 20% human serum": 0.05}
{"binder": "B6", "GLPR1 EC50 (nM) human; cAMP production (HitHunter cAMP XS) in cells expressing human GLP-1R, 20% human serum": 0.048}
{"binder": "B7", "GLPR1 EC50 (nM) human; cAMP production (HitHunter cAMP XS) in cells expressing human GLP-1R, 20% human serum": 0.033}
{"target": "human glucagon receptor (human, UniProt P47871 26-477)", "sequence (P47871 26-477)": "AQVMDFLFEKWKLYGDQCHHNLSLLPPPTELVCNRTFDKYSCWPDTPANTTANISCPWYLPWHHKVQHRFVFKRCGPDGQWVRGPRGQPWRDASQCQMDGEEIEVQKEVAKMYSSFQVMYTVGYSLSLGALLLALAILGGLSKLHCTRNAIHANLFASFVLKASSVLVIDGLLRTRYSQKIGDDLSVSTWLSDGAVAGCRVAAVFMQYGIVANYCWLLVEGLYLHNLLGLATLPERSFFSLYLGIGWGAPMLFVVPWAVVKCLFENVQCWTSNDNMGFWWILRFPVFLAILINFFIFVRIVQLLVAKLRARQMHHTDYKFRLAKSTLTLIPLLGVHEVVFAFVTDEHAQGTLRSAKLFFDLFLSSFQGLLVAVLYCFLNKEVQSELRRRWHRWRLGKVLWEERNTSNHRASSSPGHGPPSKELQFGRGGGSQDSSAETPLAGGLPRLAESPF", "assay": "cell-based or functional assay", "units": {"GCGR EC50 (nM) human; cAMP production (HitHunter cAMP XS) in cells expressing human GCGR, 20% human serum": "nM"}}
{"binder": "B1", "GCGR EC50 (nM) human; cAMP production (HitHunter cAMP XS) in cells expressing human GCGR, 20% human serum": 0.06}
{"binder": "B2", "GCGR EC50 (nM) human; cAMP production (HitHunter cAMP XS) in cells expressing human GCGR, 20% human serum": 0.02}
{"binder": "B3", "GCGR EC50 (nM) human; cAMP production (HitHunter cAMP XS) in cells expressing human GCGR, 20% human serum": 0.02}
{"binder": "B4", "GCGR EC50 (nM) human; cAMP production (HitHunter cAMP XS) in cells expressing human GCGR, 20% human serum": 0.05}
{"binder": "HXQGTFTSDKSKYLDERAAQDFVQWLLDT (X2 = D-Ser; K10 conjugated to γEγEC16; C-terminal amide)", "note": "[Comparator Co-agonist Peptide 6]", "GCGR EC50 (nM) human; cAMP production (HitHunter cAMP XS) in cells expressing human GCGR, 20% human serum": 0.009}
{"binder": "Ac-HAQGTFTSDK([γGlu-γGlu-C16])SKYLDERAAQDFVQWLLDT-NH2", "note": "[Co-agonist Peptide 7]", "GCGR EC50 (nM) human; cAMP production (HitHunter cAMP XS) in cells expressing human GCGR, 20% human serum": 0.07}
{"binder": "B5", "GCGR EC50 (nM) human; cAMP production (HitHunter cAMP XS) in cells expressing human GCGR, 20% human serum": 0.05}
{"binder": "B6", "GCGR EC50 (nM) human; cAMP production (HitHunter cAMP XS) in cells expressing human GCGR, 20% human serum": 0.042}
{"binder": "B7", "GCGR EC50 (nM) human; cAMP production (HitHunter cAMP XS) in cells expressing human GCGR, 20% human serum": 0.03}
